In publication PMC7933254:

Target: RhoA (blot label: Myc (RhoA); legend: RhoA-GFP)
Experiment: co-immunoprecipitation (IP: Myc (RhoA)) with densitometry
Settings: MN-1 cells, mean ± SEM, parent: est. 1.0, read off a plot

Substance: TRPV4-FLAG (wild type), expressed in MN-1 cells (from UniProt Q9HBA0) R237L
- ratio to parent (R237L TRPV4-FLAG alone, no TRPV4-GFP co-expressed (lane 4), n = 5): 0.05
- ratio to parent (R237L TRPV4-FLAG co-expressed with WT TRPV4-GFP (lane 5), n = 4): 0.04
